Key:
[1] = target: Env of HIV-1 strain AC10.0.29 (HIV-1); experiment: cell-based or functional assay
[2] = target: Env of HIV-1 strain CAP210.2.00.E8 (HIV-1); experiment: cell-based or functional assay
[3] = target: Env of HIV-1 strain SC422661.8 (HIV-1); experiment: cell-based or functional assay
[4] = target: Env of HIV-1 strain Du172.17 (HIV-1); experiment: cell-based or functional assay
[5] = target: Env of HIV-1 strain TRO.11 (HIV-1); experiment: cell-based or functional assay
[6] = target: Env of HIV-1 strain CAP45.2.00.G3 (HIV-1); experiment: cell-based or functional assay
[7] = target: HIV-1 strain CAP45.2.00.G3 envelope (gp120) (HIV-1); experiment: cell-based or functional assay
[8] = target: HIV-1 strain CAP210.2.00.E8 envelope (gp120) (HIV-1); experiment: cell-based or functional assay
[9] = target: HIV-1 strain AC10.0.29 envelope (gp120) (HIV-1); experiment: cell-based or functional assay
[10] = target: HIV-1 strain SC422661.8 envelope (gp120) (HIV-1); experiment: cell-based or functional assay
[11] = target: HIV-1 strain TRO.11 envelope (gp120) (HIV-1); experiment: cell-based or functional assay
[12] = target: HIV-1 strain Du172.17 envelope (gp120) (HIV-1); experiment: cell-based or functional assay
[13] = target: gp120 (ZM135M.PL10a) of the CD4-gp120 complex structure (HIV-1); experiment: CD4-gp120 complex structure, AreaIMol, 1.4 Å probe
[14] = target: HIV-1 Env of strain 3016.v5.c45 (HIV-1); experiment: cell-based or functional assay
[15] = target: HIV-1 Env of strain C2101.c01 (HIV-1); experiment: cell-based or functional assay
[16] = target: HIV-1 strain QH0692.42 envelope (gp120) (HIV-1); experiment: cell-based or functional assay
[17] = target: HIV-1 strain T257-31 envelope (gp120) (HIV-1); experiment: cell-based or functional assay
[18] = target: HIV-1 strain ZM214M.PL15 envelope (gp120) (HIV-1); experiment: cell-based or functional assay
[19] = target: HIV-1 Env of strain SC422661.8 (HIV-1); experiment: cell-based or functional assay
[20] = target: HIV-1 Env of strain ZM214M.PL15 (HIV-1); experiment: cell-based or functional assay
[21] = target: HIV-1 Env of strain AC10.0.29 (HIV-1); experiment: cell-based or functional assay
[22] = target: HIV-1 Env of strain T257-31 (HIV-1); experiment: cell-based or functional assay
[23] = target: HIV-1 Env of strain QH0692.42 (HIV-1); experiment: cell-based or functional assay
[24] = target: HIV-1 Env of strain CAP45.2.00.G3 (HIV-1); experiment: cell-based or functional assay
[25] = target: HIV-1 Env of strain TRO.11 (HIV-1); experiment: cell-based or functional assay
[26] = target: 93TH057 gp120 core (HIV-1); experiment: structure PDB 3NGB, AreaIMol, 1.4 Å probe
[27] = target: CAP244.2.00.D3 gp120 core (HIV-1)
[28] = target: 93TH057 gp120 core (HIV-1)
[29] = target: Q259.d2.17 gp120 core (HIV-1)

NIH45-46 Fab (C-terminal 6x-His tagged heavy chain, SPR), sequence (VH): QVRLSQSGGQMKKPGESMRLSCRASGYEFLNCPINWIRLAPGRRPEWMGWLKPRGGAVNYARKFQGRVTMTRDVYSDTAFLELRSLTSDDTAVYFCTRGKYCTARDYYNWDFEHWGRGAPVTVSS
NIH45-46 Fab (C-terminal 6x-His tagged heavy chain, SPR), sequence (V domain): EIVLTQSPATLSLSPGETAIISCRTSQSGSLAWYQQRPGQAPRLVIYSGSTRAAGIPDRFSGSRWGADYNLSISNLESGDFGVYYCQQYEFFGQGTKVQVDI

Row | Substance | IC50 [1] [mg/L] | IC50 [2] [mg/L] | IC50 [3] [mg/L] | IC50 [4] [mg/L] | IC50 [5] [mg/L] | IC50 [6] [mg/L] | further results
1 | 3BNC60 T54G (antibody) | 0.623 | 11.9 | 0.01 | 0.02 | 0.0003 | > 50 | –
2 | 3BNC60 T54F (antibody) | – | 3.4 | 0.025 | 2.2 | 0.023 | – | –
3 | 3BNC60 T54R (antibody) | > 50 | 5 | 0.014 | 2.15 | 0.006 | > 50 | –
4 | 3BNC60 T54K (antibody) | > 50 | > 50 | 0.024 | > 50 | 0.029 | > 50 | –
5 | 3BNC60 T54E (antibody) | 2.92 | > 50 | 0.075 | > 50 | 0.004 | > 50 | –
6 | 3BNC60 T54W IgG (antibody) | – | – | – | – | – | – | neutralization IC50 [7]: 19 mg/L; neutralization IC50 [8]: 5 mg/L; neutralization IC50 [9]: 3.1 mg/L; neutralization IC50 [10]: 0.1 mg/L; neutralization IC50 [11]: 0.06 mg/L; neutralization IC50 [12]: 0.04 mg/L
7 | CD4 (from UniProt P01730 26-208) (receptor) | – | – | – | – | – | – | buried surface area on gp120, Inner domain & bridging sheet [13]: 400 Å^2; buried surface area on gp120, Loop D + NAG [13]: 136 Å^2; buried surface area on gp120, Outer domain exit loop [13]: 97 Å^2; buried surface area on gp120, V5 [13]: 155 Å^2; buried surface area on gp120, β-15/α-3 + NAG [13]: 263 Å^2; buried surface area on gp120, β-24 [13]: 14 Å^2; buried surface area, Interface on Fab or CD4 [13]: 1060 Å^2; buried surface area, Total gp120 [13]: 973 Å^2
8 | 3BNC60 T54L (antibody) | > 50 | 30.7 | 0.034 | 3.59 | 0.019 | > 50 | –
9 | 3BNC117 T54W IgG (antibody) | – | – | – | – | – | – | neutralization IC50 [7]: 23 mg/L; neutralization IC50 [8]: 2.8 mg/L; neutralization IC50 [9]: 2.8 mg/L; neutralization IC50 [10]: 0.07 mg/L; neutralization IC50 [11]: 0.6 mg/L; neutralization IC50 [12]: 0.9 mg/L
10 | VRC01 IgG (antibody) | – | – | – | – | – | – | neutralization IC50 [14]: 0.16 mg/L; neutralization IC50 [15]: 0.36 mg/L; neutralization IC50 [7]: 1.8 mg/L; neutralization IC50 [16]: 0.7 mg/L; neutralization IC50 [17]: 1 mg/L; neutralization IC50 [9]: 0.8 mg/L; neutralization IC50 [10]: 0.2 mg/L; neutralization IC50 [11]: 0.5 mg/L; neutralization IC50 [18]: 0.8 mg/L
11 | NIH45-46 Y99dA IgG (antibody) | – | – | – | – | – | – | neutralization IC50 [19]: 0.08 mg/L; neutralization IC50 [20]: 1.1 mg/L; neutralization IC50 [21]: 4.4 mg/L; neutralization IC50 [22]: 2.4 mg/L; neutralization IC50 [23]: 2.1 mg/L; neutralization IC50 [24]: > 50 mg/L; neutralization IC50 [25]: > 50 mg/L
12 | 3BNC60 T54Y (antibody) | – | 2.9 | 0.02 | 2.2 | 0.012 | – | –
13 | 3BNC60 T54A (antibody) | 2.6 | 0.1 | 0.027 | > 50 | 0.003 | > 50 | –
14 | 3BNC60 T54N (antibody) | > 50 | 16.3 | 0.025 | 0.662 | 0.008 | 16.7 | –
15 | 3BNC60 T54H (antibody) | > 50 | 1.6 | 0.003 | 0.055 | 0.011 | 6.64 | –
16 | 3BNC60 T54Q (antibody) | 9.04 | 7.4 | 0.038 | 0.243 | 0.006 | 6.66 | –
17 | VRC01 Fab (structure of VRC01-93TH057, PDB code 3NGB) | – | – | – | – | – | – | buried surface area on gp120, Inner domain & bridging sheet [26]: 157 Å^2; buried surface area on gp120, Loop D + NAG [26]: 433 Å^2; buried surface area on gp120, Outer domain exit loop [26]: 57 Å^2; buried surface area on gp120, V5 [26]: 328 Å^2; buried surface area on gp120, β-15/α-3 + NAG [26]: 208 Å^2; buried surface area on gp120, β-24 [26]: 43 Å^2; buried surface area, Interface on Fab or CD4 [26]: 1210 Å^2; buried surface area, Total gp120 [26]: 1220 Å^2; total buried surface area, light chain with gp120 [26]: 681 Å^2; buried surface area, CDR3 ([26]; VRC01 heavy chain): 117 Å^2; buried surface area, Interface on gp120 ([26]; VRC01 heavy chain): 882 Å^2; buried surface area, Total Fab ([26]; VRC01 heavy chain): 892 Å^2; buried surface area, CDR3 ([26]; VRC01 light chain): 165 Å^2; buried surface area, Interface on gp120 ([26]; VRC01 light chain): 367 Å^2; buried surface area, Total Fab ([26]; VRC01 light chain): 314 Å^2
18 | VRC01 heavy chain paired with the NIH45-46 light chain (IgG) (antibody) | – | – | – | – | – | – | neutralization IC50 [7]: > 50 mg/L; neutralization IC50 [16]: 1.2 mg/L; neutralization IC50 [17]: 15 mg/L; neutralization IC50 [9]: 4.5 mg/L; neutralization IC50 [10]: 0.4 mg/L; neutralization IC50 [11]: 24 mg/L; neutralization IC50 [18]: 1.8 mg/L
19 | NIH45-46 Fab (C-terminal 6x-His tagged heavy chain, SPR) | – | – | – | – | – | – | Kd [27]: 0.097 µM; koff [27]: 0.0067 s⁻¹; kon [27]: 69000 M⁻¹ s⁻¹; Kd [28]: 0.16 µM; koff [28]: 0.0048 s⁻¹; kon [28]: 31000 M⁻¹ s⁻¹; Kd [29]: 0.19 µM; koff [29]: 0.01 s⁻¹; kon [29]: 55000 M⁻¹ s⁻¹
20 | 3BNC60 T54V (antibody) | > 50 | 42.8 | 0.039 | 7.36 | 0.024 | > 50 | –
21 | 3BNC60 T54D (antibody) | > 50 | > 50 | 0.556 | > 50 | 0.036 | > 50 | –
22 | 3BNC60 T54P (antibody) | > 50 | > 50 | 0.143 | > 50 | 0.048 | > 50 | –
23 | 3BNC60 T54I (antibody) | > 50 | > 50 | 0.054 | 21.8 | 0.027 | > 50 | –
24 | 3BNC60 T54M (antibody) | > 50 | 25 | 0.032 | 1.43 | 0.019 | > 50 | –
25 | 3BNC60 T54S (antibody) | > 50 | 14.7 | 0.036 | 0.92 | 0.02 | 41.7 | –
26 | 3BNC60 T54W (antibody) | – | 2.6 | 0.031 | 2.2 | 0.021 | – | –

— patent US20130209454A1
